B1: Glutaredoxin-3 (Homo sapiens), O76003 (parent)
chain: MAAGAAEAAVAAVEEVGSAGQFEELLRLKAKSLLVVHFWAPWAPQCAQMNEVMAELAKELPQVSFVKLEAEGVPEVSEKYEISSVPTFLFFKNSQKIDRLDGAHAPELTKKVQRHASSGSFLPSANEHLKEDLNLRLKKLTHAAPCMLFMKGTPQEPRCGFSKQMVEILHKHNIQFSSFDIFSDEEVRQGLKAYSSWPTYPQLYVSGELIGGLDIIKELEASEELDTICPKAPKLEERLKVLTNKASVMLFMKGNKQEAKCGFSKQILEILNSTGVEYETFDILEDEEVRQGLKAYSNWPTYPQLYVKGELVGGLDIVKELKENGELLPILRGEN
partner: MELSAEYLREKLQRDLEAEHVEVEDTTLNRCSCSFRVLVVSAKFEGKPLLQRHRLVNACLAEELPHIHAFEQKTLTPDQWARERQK
B2: Glutaredoxin-3 (Homo sapiens), O76003 (parent)
chain: B1 chain

Variants of: B1
Conditions: with bola2_human BOLA2, Q9H3K6

effect of a mutation on the interaction | Variant
disrupting interaction strength | C159S;W197D;P198A;C261S;W299D;P300A
decreasing interaction strength | C261S;W299D;P300A
decreasing interaction strength | C159S;W197D;P198A

Variants of: B2
Conditions: with cpin1_human CIAPIN1, Q6FI81
cpin1_human CIAPIN1, Q6FI81, sequence (Q6FI81 whole entry): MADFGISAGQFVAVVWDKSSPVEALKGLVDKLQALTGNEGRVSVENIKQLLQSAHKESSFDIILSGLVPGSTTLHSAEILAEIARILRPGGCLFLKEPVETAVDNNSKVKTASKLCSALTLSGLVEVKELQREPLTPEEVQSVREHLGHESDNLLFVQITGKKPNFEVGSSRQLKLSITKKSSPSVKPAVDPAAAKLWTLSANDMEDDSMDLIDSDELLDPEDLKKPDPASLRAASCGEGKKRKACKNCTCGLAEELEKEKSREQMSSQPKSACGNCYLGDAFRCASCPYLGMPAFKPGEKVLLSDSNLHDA

effect of a mutation on the interaction | Variant
disrupting interaction strength | C159S;W197D;P198A;C261S;W299D;P300A

Source: IntAct's records for PubMed 27519415
